According to patent US20060121022A1 (Chugai, published 2006):
Changes are numbered by the printed parent chain. Blank lines part the entries; values can stand above or below the molecule they belong to.

Legend:
[1] = target: T1, recombinant PCI (with Flag tag) (UniProt P05154)
T1 sequence: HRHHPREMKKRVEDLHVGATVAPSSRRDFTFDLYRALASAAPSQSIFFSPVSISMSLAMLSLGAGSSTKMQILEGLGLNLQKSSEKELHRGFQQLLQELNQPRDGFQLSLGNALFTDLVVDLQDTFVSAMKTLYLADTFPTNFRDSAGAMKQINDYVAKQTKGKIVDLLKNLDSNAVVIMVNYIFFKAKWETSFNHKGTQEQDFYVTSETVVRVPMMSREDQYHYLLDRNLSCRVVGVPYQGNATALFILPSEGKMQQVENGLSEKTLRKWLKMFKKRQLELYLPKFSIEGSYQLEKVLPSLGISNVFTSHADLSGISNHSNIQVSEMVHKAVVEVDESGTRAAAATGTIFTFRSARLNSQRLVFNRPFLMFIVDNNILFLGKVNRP

[2] = target: activated protein C (aPC; protein C from human plasma, activated, SIGMA P-2200) (human, UniProt P04070 43-461); assay: cell-based or functional assay
activated protein C (aPC; protein C from human plasma, activated, SIGMA P-2200), sequence (P04070 43-461): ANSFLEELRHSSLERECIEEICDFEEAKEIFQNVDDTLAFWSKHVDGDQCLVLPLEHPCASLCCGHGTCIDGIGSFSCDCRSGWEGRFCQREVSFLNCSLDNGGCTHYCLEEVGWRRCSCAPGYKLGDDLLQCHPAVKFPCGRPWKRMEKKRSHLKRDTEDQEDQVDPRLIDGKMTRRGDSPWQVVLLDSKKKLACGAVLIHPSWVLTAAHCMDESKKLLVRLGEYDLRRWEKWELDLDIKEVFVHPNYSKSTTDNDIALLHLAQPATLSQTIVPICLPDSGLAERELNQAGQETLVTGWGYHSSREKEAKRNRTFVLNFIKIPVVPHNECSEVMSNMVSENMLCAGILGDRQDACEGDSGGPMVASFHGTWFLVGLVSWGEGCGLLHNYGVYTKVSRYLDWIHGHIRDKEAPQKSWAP

Molecule: activated protein C (aPC; protein C from human plasma, activated, SIGMA P-2200)
absorbance (at 405 nm), substrate S-2366; CONTROL (aPC with PCI, no antibody), AVERAGE (absorbance at 405 nm) [1]: 0.262
absorbance (at 405 nm), substrate S-2366; CONTROL (aPC with PCI, no antibody), first replicate (absorbance at 405 nm) [1]: 0.278
absorbance (at 405 nm), substrate S-2366; CONTROL (aPC with PCI, no antibody), second replicate (absorbance at 405 nm) [1]: 0.245

B2: anti-aPC antibody aPC#285 (hybridoma well No. 285) (antibody, IgG1, V domains shown)
VH: QVQLQQSGSEVVKPGASVKISCKASGYAFSRSWMNWVKQRPGQGLEWIGRIYPGDGDSIYNGKFKGKATLTADKSSTTAYMHLNSLTSVDSAVYFCARWGSSGSSWFAYWGQGTLVTVSA
VL: DIQMTQSPASLSASMGETVTITCRTSENIYSYLAWYRQKQGKSPQLLVYNAKTLAEGVPSRFSGSGSGTQFSLRINSLQPEDFGSYFCQHYYGSPYTFGGGTKLEIK
…ON SUPPRESSION RATE (%), EXPERIMENT 1 (APTT coagulation time, human plasma) [2]: 24.5%
…ON SUPPRESSION RATE (%), EXPERIMENT 2 (APTT coagulation time, human plasma) [2]: 28.2%

B4: anti-aPC antibody aPC#79 (hybridoma well No. 79) (antibody, IgG2b, V domains shown)
VH: QVQLQQSGAELARPGASVKLSCKASGYTFTDSYMNWVKQRTGQGLEWIGEVYPETGNSYYNEKFKGKATLTADRSSKTAYMQLNSLTSEDSAVYFCTRGGTGFDYWGQGTTLTVSS
VL: QIVLAQSPAIMSASLGERVTMTCTASSSVSSSYLHWYQQKPGSSPKAWIYSTSNLASGAPTRFSGSGSGTSYSLTISSMEAEDAATYYCHQYHRSPFTFGSGTKLEIK
…ON SUPPRESSION RATE (%), EXPERIMENT 1 (APTT coagulation time, human plasma) [2]: 88%
…ON SUPPRESSION RATE (%), EXPERIMENT 2 (APTT coagulation time, human plasma) [2]: 68.3%

Further lines, results first:

…ON SUPPRESSION RATE (%), EXPERIMENT 1 (APTT coagulation time, human plasma) [2]: 23.4%
…ON SUPPRESSION RATE (%), EXPERIMENT 2 (APTT coagulation time, human plasma) [2]: 20.7%
B1: anti-aPC antibody aPC#123 (hybridoma well No. 123) (antibody, IgG2b, V domains shown)
VH: QVQLQQSGPELVKPGASVKISCKASGYAFSSSWMNWVKQRPGQGLEWIGRIYPGDGDTNYNGKFRGKATLTADKSSSTAYMQLTSLTSVDSAVYFCARWGITTAAWFAYWGQGTLVTVSA
VL: B2 VL with M15V, R37Q, Y49N, R74K, S85T, F87Y, S94T, Y96P

…ON SUPPRESSION RATE (%), EXPERIMENT 1 (APTT coagulation time, human plasma) [2]: 33.8%
…ON SUPPRESSION RATE (%), EXPERIMENT 2 (APTT coagulation time, human plasma) [2]: 21.6%
B3: anti-aPC antibody aPC#281 (hybridoma well No. 281) (antibody, IgG1, V domains shown)
VH: QIQLVQSGPELEKPGETVRISCKASGYTFTDYSLHWVKQAPGKGLKWMGWINTETGEPTYADDLKGRFAFSLETSATTAYLQINNLKNEDTATYFCARGITLDYWGQGTSLTVSS
VL: DNVMSQSPSSLAVSVGEKVTMSCKSSQSLLSSSNQKNFLAWYQQKPGQSPKLLISWASTRHSGVPDRFTGSGSGTDFTLTISSVNAEDLAVYYCQQYYRYPLTFGAGTKLELK
